Drawing on patent US20220049019A1, this text covers fold increase in binding against the Construct 4 (SIF3) control and EC50 for one substance.

Assay [1] addresses FcγRIIb receptor (UniProt P31994). Nature of the assay: cell based competitive TR-FRET (CisBio); displacement of a fluorescently labeled antibody from the cell surface receptor.
Assay [2] has as its target FcγRIIa (UniProt P12318). The experiment in a line: competitive TR-FRET. In general terms: TR-FRET usually uses a lanthanide donor and a delayed reading to cut background.
Assay [3] addresses FcγRIIb receptor (UniProt P31994). The experiment in a line: competitive TR-FRET.
Assay [4] concerns the target FcγRIIIa (UniProt P08637). The experiment in a line: competitive TR-FRET.

Some results are limits rather than exact numbers.

The EC50 is the concentration needed to bring the measured effect to its halfway point. A lower EC50 goes with a more potent agent. “Construct 4-FcγRIIb+ mutant (from UniProt P01857 27-328; P0DOX5 223-448)” showed a fold increase in binding against the Construct 4 (SIF3) control in assay [1] greater than 300 fold. The EC50 is 126 pM in assay [2], 16.5 pM in assay [3] and 26700 pM in assay [4].
